# Measured values reported in IntAct's records for PubMed 22244754.
# B1: Phosphatidylinositol 3,4,5-trisphosphate 5-phosphatase 2 (Homo sapiens), O15357-1 (parent)
# chain: MASACGAPGPGGALGSQAPSWYHRDLSRAAAEELLARAGRDGSFLVRDSESVAGAFALCVLYQKHVHTYRILPDGEDFLAVQTSQGVPVRRFQTLGELIGLYAQPNQGLVCALLLPVEGEREPDPPDDRDASDGEDEKPPLPPRSGSTSISAPTGPSSPLPAPETPTAPAAESAPNGLSTVSHDYLKGSYGLDLEAVRGGASHLPHLTRTLATSCRRLHSEVDKVLSGLEILSKVFDQQSSPMVTRLLQQQNLPQTGEQELESLVLKLSVLKDFLSGIQKKALKALQDMSSTAPPAPQPSTRKAKTIPVQAFEVKLDVTLGDLTKIGKSQKFTLSVDVEGGRLVLLRRQRDSQEDWTTFTHDRIRQLIKSQRVQNKLGVVFEKEKDRTQRKDFIFVSARKREAFCQLLQLMKNKHSKQDEPDMISVFIGTWNMGSVPPPKNVTSWFTSKGLGKTLDEVTVTIPHDIYVFGTQENSVGDREWLDLLRGGLKELTDLDYRPIAMQSLWNIKVAVLVKPEHENRISHVSTSSVKTGIANTLGNKGAVGVSFMFNGTSFGFVNCHLTSGNEKTARRNQNYLDILRLLSLGDRQLNAFDISLRFTHLFWFGDLNYRLDMDIQEILNYISRKEFEPLLRVDQLNLEREKHKVFLRFSEEEISFPPTYRYERGSRDTYAWHKQKPTGVRTNVPSWCDRILWKSYPETHIICNSYGCTDDIVTSDHSPVFGTFEVGVTSQFISKKGLSKTSDQAYIEFESIEAIVKTASRTKFFIEFYSTCLEEYKKSFENDAQSSDNINFLKVQWSSRQLPTLKPILADIEYLQDQHLLLTVKSMDGYESYGECVVALKSMIGSTAQQFLTFLSHRGEETGNIRGSMKVRVPTERLGTRERLYEWISIDKDEAGAKSKAPSVSRGSQEPRSGSRKPAFTEASCPLSRLFEEPEKPPPTGRPPAPPRAAPREEPLTPRLKPEGAPEPEGVAAPPPKNSFNNPAYYVLEGVPHQLLPPEPPSPARAPVPSATKNKVAITVPAPQLGHHRHPRVGEGSSSDEESGGTLPPPDFPPPPLPDSAIFLPPSLDPLPGPVVRGRGGAEARGPPPPKAHPRPPLPPGPSPASTFLGEVASGDDRSCSVLQMAKTLSEVDYAPAGPARSALLPGPLELQPPRGLPSDYGRPLSFPPPRIRESIQEDLAEEAPCLQGGRASGLGEAGMSAWLRAIGLERYEEGLVHNGWDDLEFLSDITEEDLEEAGVQDPAHKRLLLDTLQLSK
# Variants of: B1
# Conditions: with epha2_human EPHA2, P29317
# Sequence of epha2_human EPHA2, P29317 (P29317 whole entry): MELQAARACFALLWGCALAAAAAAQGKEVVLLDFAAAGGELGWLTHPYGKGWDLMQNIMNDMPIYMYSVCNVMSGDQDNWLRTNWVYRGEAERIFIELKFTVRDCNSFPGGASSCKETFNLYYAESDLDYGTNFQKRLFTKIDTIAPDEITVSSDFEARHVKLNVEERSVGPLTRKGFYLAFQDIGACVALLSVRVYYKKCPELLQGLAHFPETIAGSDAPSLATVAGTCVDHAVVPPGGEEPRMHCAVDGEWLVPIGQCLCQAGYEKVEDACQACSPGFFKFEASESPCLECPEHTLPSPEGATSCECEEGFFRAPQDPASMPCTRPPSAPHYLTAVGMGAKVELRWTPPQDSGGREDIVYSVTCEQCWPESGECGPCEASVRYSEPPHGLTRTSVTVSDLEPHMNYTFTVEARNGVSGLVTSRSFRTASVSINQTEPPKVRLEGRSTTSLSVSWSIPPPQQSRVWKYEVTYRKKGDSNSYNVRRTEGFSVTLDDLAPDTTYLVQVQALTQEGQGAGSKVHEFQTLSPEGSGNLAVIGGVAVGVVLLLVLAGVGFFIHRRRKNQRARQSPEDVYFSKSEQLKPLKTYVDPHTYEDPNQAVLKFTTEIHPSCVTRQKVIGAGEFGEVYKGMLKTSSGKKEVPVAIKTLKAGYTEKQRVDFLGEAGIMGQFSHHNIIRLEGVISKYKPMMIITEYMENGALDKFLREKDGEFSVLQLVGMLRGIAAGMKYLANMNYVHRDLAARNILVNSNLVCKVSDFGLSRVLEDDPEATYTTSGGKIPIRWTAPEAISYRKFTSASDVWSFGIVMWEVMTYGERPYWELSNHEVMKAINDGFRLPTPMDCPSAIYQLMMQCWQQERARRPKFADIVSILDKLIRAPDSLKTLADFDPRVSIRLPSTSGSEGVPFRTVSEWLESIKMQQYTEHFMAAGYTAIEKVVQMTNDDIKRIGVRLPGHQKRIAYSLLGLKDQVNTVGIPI
row,Variant,effect of a mutation on the interaction
1,H1219S,increasing interaction

# Variants of: B1
# Conditions: with epha2_human EPHA2, P29317
# Remark: another data set of the same source
row,Variant,effect of a mutation on the interaction
1,D1223A;D1224A,disrupting interaction
